According to article PMC4345311:

B1: PR10.1-8E-M10 (structured_RNA)
RNA: GGCAGUGGAUCCAGUAGAUGCUCUUAAGUGUAACUUCUCAUAACAUCCGGAGGCUUUUACUUCCGGGGACCUAAGUGACGUCUGAACUGCUUCGAA
B2: PR10.1-8E-M8 (structured_RNA)
RNA: GGGUUACCUAGGUGUAGUGUGACUUAUCGUAAACUUCUCAUAACAUCCGGAGGCUUUUACUUCCGGGGACCUAAGUGACGUCUGAACUGCUUCGAA
B3: PR10.1-8E-D3CR (structured_RNA)
RNA: GGGUUACCUAGGUGUAGAUGCUCUUAAGUGUAACUUCUCAUAACAUCCGGAGGCUUUUACUUCCGGGG
B4: PR10.1-8E-M2 (structured_RNA)
RNA: GGGUUACCUAGGUGUAGAUGCUCUUAAGUGUAACUUCUCAUAACAUCCGGAGGCUUUUAGAAGGCCCGACCUAAGUGACGUCUGAACUGCUUCGAA
B5: PR10.1-8E-M1 (structured_RNA)
RNA: GGGUUACCUAGGUGUAGAUGCUCUUAAGUGUAACUUCUCAUAACAUCCGGAGGCACGUACUUCCGGGGACCUAAGUGACGUCUGAACUGCUUCGAA
B6: PR10.1-8E-M4 (structured_RNA)
RNA: GGGUUACCUAGGUGUAGAUGCUACGUAGUGUAACUUCUCAUAACAUCCGGAGGCUUUUACUUCCGGGGACCUAAGUGACGUCUGAACUGCUUCGAA
B7: PR10.1-8E-M6 (structured_RNA)
RNA: GGGUUACCUAGGUGUAGAUGCUCUUAUCACAAACUUCUCAUAACAUCCGGAGGCUUUUACUUCCGGGGACCUAAGUGACGUCUGAACUGCUUCGAA
B8: PR10.1-8E-M5 (structured_RNA)
RNA: GGGUUACCUAGGUGUAGUACGACUUAAGUGUAACUUCUCAUAACAUCCGGAGGCUUUUACUUCCGGGGACCUAAGUGACGUCUGAACUGCUUCGAA
B9: PR10.1-8E-M9 (structured_RNA)
RNA: GGGUUACCUAGGUGUAGAUGCUCUUAAGUGUAACUUCUCAUAACAUCCGGAGGCUUUUACUUCCGGGGUGGAUCCAUUGGUCUGAACUGCUUCGAA

Molecular target: HIV-1 protease (PR), wild-type (HIV-1, UniProt P04585 489-587)
Assay: filter binding

Row | Binder | binding result | Kd [nM]
1 | B1 | no binding | –
2 | B2 | – | 386 ± 63
3 | B3 | no binding | –
4 | B4 | no binding | –
5 | B5 | no binding | –
6 | B6 | no binding | –
7 | B7 | no binding | –
8 | B8 | no binding | –
9 | B9 | no binding | –
